As a reminder, the Kd is the equilibrium constant for the complex coming apart. For orientation: koff means the rate constant with which the complex falls apart. One may read the kon as the second-order rate constant of association.

In assay [1] the target is hLTBP3-proTGFβ1 in the cell-based potency assay (human, UniProt P01137 30-390; Q9NS15 44-1303). Briefly: cell-based or functional assay.
Assay [2] concerns the target hLTBP1-proTGFβ1 in the cell-based potency assay (human, UniProt P01137 30-390; Q14766 347-1721). The experiment in a line: cell-based or functional assay.
In assay [3] the target is hGARP-proTGFβ1 in the cell-based potency assay (human, UniProt P01137 30-390; Q14392 20-662). The experiment in a line: cell-based or functional assay.
Another assay addresses T1, Cyno (cynomolgus monkey).
T1 chain: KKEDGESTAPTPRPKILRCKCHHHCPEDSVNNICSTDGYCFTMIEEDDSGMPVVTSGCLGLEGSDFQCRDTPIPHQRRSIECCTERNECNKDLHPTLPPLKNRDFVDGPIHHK
The experiment in a line: cell-based or functional assay.

A further assay concerns the target Rat (rat). The experiment in a line: cell-based or functional assay.
In a further assay the target is Human (human). The experiment in a line: cell-based or functional assay.
The target in another assay is LTBP:proTGFβ1 (human). The experiment in a line: cell-based or functional assay.
Assay [4] deals with hLRRC33-proTGFβ1 in the cell-based potency assay (human, UniProt P01137 30-390; Q86YC3 19-651). Briefly: cell-based or functional assay.
Assay [5] addresses T2, recombinant human LTBP1-proTGFβ1 complex (human, UniProt Q14766 873-1507).
T2 construct: range 873-1507; Purified large latent complex (proTGFβ1 dimer disulfide-linked to one presenting molecule); biotinylated in BLI, MSD-SET and SPR assays; also called hLTBP1-proTGFβ1; hLTBP1
The experiment in a line: SPR (Biacore 8K), biotinylated antigen on Biotin CAP chip, Fab 0.62-10 nM, 1:1 fit.

The target of assay [6] is T3, recombinant human GARP-proTGFβ1 complex (human, UniProt P01137 30-390; Q14392 20-627).
T3 construct: C-terminally His-tagged GARP ectodomain (sGARP) in complex with latent TGFβ1; also called hGARP-proTGFβ1; hGARP
Described as above.

In assay [7] the target is T4, recombinant human LRRC33-proTGFβ1 complex (human, UniProt P01137 30-390; Q86YC3 19-650).
T4 construct: C-terminally His-tagged LRRC33 ectodomain (sLRRC33); also called hLRRC33-proTGFβ1; hLRRC33
The description is as above.

Assay [8] addresses T5, recombinant human LTBP3-proTGFβ1 complex (human, UniProt Q9NS15 866-1039).
T5 construct: range 866-1039; Purified large latent complex; also called hLTBP3-proTGFβ1; hLTBP3
The description is as above.

T4 sequence (P01137 30-390 limits assumed, chain 1 of 2): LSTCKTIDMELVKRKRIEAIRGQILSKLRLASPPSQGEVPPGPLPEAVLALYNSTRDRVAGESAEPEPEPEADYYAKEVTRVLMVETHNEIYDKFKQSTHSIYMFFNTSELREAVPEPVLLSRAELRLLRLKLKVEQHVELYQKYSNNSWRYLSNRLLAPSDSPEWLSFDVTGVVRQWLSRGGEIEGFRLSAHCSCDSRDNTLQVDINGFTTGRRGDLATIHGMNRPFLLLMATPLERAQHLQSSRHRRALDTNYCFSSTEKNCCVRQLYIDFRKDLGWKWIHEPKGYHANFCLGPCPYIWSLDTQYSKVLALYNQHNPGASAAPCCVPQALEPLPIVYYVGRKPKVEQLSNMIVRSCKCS
T4 sequence (Q86YC3 other isoform, or with tags, fused parts or gaps limits assumed, chain 2 of 2): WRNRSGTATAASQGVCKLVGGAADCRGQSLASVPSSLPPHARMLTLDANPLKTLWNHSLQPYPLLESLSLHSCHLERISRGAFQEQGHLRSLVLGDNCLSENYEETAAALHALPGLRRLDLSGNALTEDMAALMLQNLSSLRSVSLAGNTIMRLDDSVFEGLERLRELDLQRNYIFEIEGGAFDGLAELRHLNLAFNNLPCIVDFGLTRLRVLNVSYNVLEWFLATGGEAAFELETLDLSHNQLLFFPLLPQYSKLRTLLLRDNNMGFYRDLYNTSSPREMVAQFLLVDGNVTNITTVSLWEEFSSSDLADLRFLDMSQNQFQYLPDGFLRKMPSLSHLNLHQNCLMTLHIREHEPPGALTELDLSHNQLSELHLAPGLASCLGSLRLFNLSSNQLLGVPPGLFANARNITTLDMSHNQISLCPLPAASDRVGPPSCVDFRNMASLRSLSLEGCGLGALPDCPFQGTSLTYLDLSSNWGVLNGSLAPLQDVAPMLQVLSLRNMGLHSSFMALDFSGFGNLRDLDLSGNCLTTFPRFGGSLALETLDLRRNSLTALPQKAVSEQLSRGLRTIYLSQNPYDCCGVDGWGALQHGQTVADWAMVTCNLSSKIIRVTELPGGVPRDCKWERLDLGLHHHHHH
T2 sequence (chain, as listed by the source limits assumed, chain 1 of 2): as the sequence (P01137 30-390 limits assumed, chain 1 of 2) above
T2 sequence (Q14766 873-1507 limits assumed, chain 2 of 2): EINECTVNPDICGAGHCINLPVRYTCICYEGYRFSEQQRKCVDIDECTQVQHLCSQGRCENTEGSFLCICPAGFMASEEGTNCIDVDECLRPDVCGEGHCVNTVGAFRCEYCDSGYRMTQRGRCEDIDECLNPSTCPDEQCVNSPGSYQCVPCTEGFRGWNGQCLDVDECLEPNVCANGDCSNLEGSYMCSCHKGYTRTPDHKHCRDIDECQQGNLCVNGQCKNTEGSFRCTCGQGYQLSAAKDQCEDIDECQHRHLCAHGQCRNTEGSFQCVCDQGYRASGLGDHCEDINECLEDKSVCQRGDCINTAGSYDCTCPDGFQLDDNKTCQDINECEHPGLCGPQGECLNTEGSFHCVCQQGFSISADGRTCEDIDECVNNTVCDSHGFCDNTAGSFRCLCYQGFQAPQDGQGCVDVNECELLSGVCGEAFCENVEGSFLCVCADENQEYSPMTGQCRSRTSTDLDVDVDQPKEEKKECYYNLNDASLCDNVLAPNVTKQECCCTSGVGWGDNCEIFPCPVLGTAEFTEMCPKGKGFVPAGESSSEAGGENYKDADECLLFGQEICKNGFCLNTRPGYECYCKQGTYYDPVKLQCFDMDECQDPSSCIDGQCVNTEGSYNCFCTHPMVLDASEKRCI
hLTBP3-proTGFβ1 in the cell-based potency assay, sequence (P01137 30-390 limits assumed, chain 1 of 2): as the sequence (P01137 30-390 limits assumed, chain 1 of 2) above
hLTBP3-proTGFβ1 in the cell-based potency assay, sequence (Q9NS15 44-1303 limits assumed, chain 2 of 2): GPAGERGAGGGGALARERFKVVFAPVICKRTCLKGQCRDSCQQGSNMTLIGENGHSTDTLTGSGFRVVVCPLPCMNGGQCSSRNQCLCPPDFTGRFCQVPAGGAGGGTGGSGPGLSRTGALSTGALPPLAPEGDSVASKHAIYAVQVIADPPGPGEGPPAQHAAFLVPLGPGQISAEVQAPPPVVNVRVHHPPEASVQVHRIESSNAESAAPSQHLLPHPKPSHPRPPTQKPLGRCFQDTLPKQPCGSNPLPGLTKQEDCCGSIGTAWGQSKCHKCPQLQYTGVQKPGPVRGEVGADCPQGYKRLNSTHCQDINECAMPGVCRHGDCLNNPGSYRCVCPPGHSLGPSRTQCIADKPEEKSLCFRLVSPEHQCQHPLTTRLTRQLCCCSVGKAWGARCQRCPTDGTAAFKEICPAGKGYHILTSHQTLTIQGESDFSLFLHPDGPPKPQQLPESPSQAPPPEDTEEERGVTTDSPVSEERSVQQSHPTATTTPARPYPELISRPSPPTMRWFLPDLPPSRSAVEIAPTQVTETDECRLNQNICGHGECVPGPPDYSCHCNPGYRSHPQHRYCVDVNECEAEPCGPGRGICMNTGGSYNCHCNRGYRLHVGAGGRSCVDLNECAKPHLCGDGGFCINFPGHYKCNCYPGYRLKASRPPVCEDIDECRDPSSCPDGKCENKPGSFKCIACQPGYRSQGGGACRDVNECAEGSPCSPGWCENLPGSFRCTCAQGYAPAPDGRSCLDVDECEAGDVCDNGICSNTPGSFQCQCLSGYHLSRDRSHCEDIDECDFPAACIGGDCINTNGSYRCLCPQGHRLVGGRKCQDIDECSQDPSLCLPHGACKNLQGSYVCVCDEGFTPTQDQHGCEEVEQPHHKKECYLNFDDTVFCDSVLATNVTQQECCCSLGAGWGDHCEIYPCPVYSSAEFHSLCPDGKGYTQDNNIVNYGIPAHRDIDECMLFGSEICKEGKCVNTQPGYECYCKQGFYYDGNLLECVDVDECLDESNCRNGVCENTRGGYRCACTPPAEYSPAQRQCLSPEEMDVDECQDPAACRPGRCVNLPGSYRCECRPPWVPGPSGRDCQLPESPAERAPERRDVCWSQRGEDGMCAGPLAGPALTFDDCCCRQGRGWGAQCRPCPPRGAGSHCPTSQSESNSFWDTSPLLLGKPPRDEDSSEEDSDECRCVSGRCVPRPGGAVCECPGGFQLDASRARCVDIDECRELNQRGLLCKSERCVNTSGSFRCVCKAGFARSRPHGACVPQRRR
T5 sequence (chain, as listed by the source limits assumed, chain 1 of 2): as the sequence (P01137 30-390 limits assumed, chain 1 of 2) above
T5 sequence (Q9NS15 866-1039 limits assumed, chain 2 of 2): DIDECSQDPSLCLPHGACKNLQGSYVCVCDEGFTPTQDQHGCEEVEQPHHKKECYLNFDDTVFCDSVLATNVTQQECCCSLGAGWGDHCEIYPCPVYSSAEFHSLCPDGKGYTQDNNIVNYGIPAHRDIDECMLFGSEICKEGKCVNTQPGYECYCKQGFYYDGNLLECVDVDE
Rat (rat), sequence (P17246 30-390): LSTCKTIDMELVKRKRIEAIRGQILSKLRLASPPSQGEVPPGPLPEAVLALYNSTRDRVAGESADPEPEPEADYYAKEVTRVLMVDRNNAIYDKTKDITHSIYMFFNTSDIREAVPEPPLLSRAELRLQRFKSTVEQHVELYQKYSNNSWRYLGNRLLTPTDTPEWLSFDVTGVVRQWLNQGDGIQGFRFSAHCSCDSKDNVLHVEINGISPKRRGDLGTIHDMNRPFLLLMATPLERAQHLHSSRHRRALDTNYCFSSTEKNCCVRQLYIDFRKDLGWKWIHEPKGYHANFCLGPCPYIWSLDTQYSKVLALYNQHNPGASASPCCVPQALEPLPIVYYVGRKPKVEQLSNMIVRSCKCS
Human (human), sequence (P01137 30-390): as the sequence (P01137 30-390 limits assumed, chain 1 of 2) above

B1: Ab4 (antibody, V domains shown)
VH: EVQLVESGGGLVQPGGSLRLSCAASGFTFSSYSMNWVRQAPGKGLEWVSYISSSSSTIYYADSVKGRFTISRDNAKNSLYLQMNSLRAEDTAVYYCARGVLDYGDMLDPWGQGTLVTVSS
VL: DIQMTQSPSSLSASVGDRVTITCQASQDITNYLNWYQQKPGKAPKLLIYDASNLETGVPSRFSGSGSGTDFTFTISSLQPEDIATYYCQQADNHPPWTFGGGTKVEIK
For the molecule B1, the “IC50, reporter cell assay of TGFβ1 activation” value (from here on “IC50, reporter cell assay”) was found to be 5.6 nM in assay [1], 5.2 nM in assay [2] and 0.8 nM in assay [3].

B2: Ab6 (antibody, V domains shown)
VH: EVQLVESGGGLVQPGGSLRLSCTASGFTFSSFSMDWVRQAPGKGLEWVSYISPSADTIYYADSVKGRFTISRDNAKNTLYLQMNSLRAEDTAVYYCARGVLDYGDMLMPWGQGTLVTVSS
VL: DIQMTQSPSSLSASVGDRVTITCQASQDITNYLNWYQQKPGKAPKLLIYDASNLETGVPSRFSGSGSGTDFTFTISSLQPEDIATYYCQQADNHPPWTFGGGTKVEIKR
Consider B2, for which the “IC50 (inhibition of latent TGFβ1 activation, LN229 transfectants with CAGA12 reporter cells)” value came out at 1.02 nM with Cyno, 1.11 nM with Rat and 1.07 nM with Human. In addition, the “IC50 (read off the curve); percent TGFβ activity, LN229 / CAGA12 luciferase reporter co-culture” value in the assay with LTBP:proTGFβ1 is about 1 nM.

B3: Ab5 (antibody, V domains shown)
VH: EVQLVESGGGLVQPGGSLRLSCAASGFTFSSFSMDWVRQAPGKGLEWVSYISPDASTIYYADSVKGRFTISRDNAKNSLYLQMNSLRAEDTAVYYCARGVLDYGDMLDPWGQGTLVTVSS
VL: DIQMTQSPSSLSASVGDRVTITCQASQDITNYLNWYQQKPGKAPKLLIYDASNLETGVPSRFSGSGSGTDFTFTISSLQPEDIATYYCQQADNHPPWTFGGGTKVEIK
For B3, the entries for the “IC50, reporter cell assay” value in [2], in assay [4] and in assay [3] were 1.3 nM, 0.6 nM and 0.1 nM, respectively.

B4: Ab33 (antibody, V domains shown)
VH: EVQLVESGGGLVQPGGSLRLSCAASGFTFSSFSMNWVRQAPGKGLEWVSYISPSADTIYYADSVKGRFTISRDNAKNTLYLQMNSLRAEDTAVYYCAHGVLDYGDMLDPWGQGTLVTVSS
VL: DIQMTQSPSSLSASVGDRVTITCQASQDITNYLNWYQQKPGKAPKLLIYDASNLETGVPSRFSGSGSGTDFTFTISSLQPEDIATYYCQQADNHPPWTFGGGTKVEIK
As for B4, the “IC50, reporter cell assay” value was found to be 1.1 nM in [1], 1.6 nM in assay [2], 0.7 nM in [4] and 0.2 nM in assay [3].

B5: Ab29 (antibody, V domains shown)
VH: EVQLVESGGGLVQPGRSLRLSCAASGFTFSSFAMNWVRQAPGKGLEWVSYISPDASTIYYAGSVKGRFTISRDNAKNSLYLQMNSLRAEDTAVYYCVRAVLDYGDMLDPWGQGTLVTVSS
VL: DIQMTQSPSSLSASVGDRVTITCQASQDITNYLNWYQQKPGKAPKLLIYDASNLETGVPSRFSGSGSGTDFTFTISSLQPEDIATYYCQQADNHPPWTFGGGTKVEIK
For B5, the “IC50, reporter cell assay” value in assay [1] was 0.8 nM; in [2] it was 0.5 nM; in assay [4], 0.5 nM; in assay [3], 0.3 nM.

B6: Ab21 (antibody, V domains shown)
VH: EVQLVESGGGLVQPGGSLRLSCAASGFTFSSFSMDWVRQAPGKGLEWVSYISPDASTIYYADSVKGRFTISRDNAKNSLYLQMNSLRAEDTAVYYCARGVLDYGDMLDPWGQGTLVTVSS
VL: DIQMTQSPSSLSASVGDRVTITCQASQDITNYLNWYQQKPGKAPKLLIYDASNLETGVPSRFSGSGSGTDFTFTISSLQPEDIATYYCQQADNHPPWTFGGGTKVEIK
On to B6, for which the “IC50, reporter cell assay” value in assay [1] amounted to 0.8 nM; in assay [2] it was 1.6 nM; in [4], 0.6 nM; in assay [3] it was 0.4 nM.

B7: Ab25 (antibody, V domains shown)
VH: EVQLVESGGGLVQPGGSLRLSCAASGFTFGSFSMDWVRQAPGKGLEWVSYISPDASTIYYADSVKGRFTISRDNAKNSLYLQMNSLRAEDTAVYYCARGVLDYGDMLDPWGQGTLVTVSS
VL: DIQMTQSPSSLSASVGDRVTITCQASQDITNYLNWYQQKPGKAPKLLIYDASNLETGVPSRFSGSGSGTDFTFTISSLQPEDIATYYCQQADNHPPWTFGGGTKVEIK
Regarding B7, the “IC50, reporter cell assay” value in assay [1] came to 0.51 nM; in assay [2], 6.1 nM; in assay [4], 0.7 nM; in assay [3] it was 0.4 nM.

B8: Ab26 (antibody, V domains shown)
VH: EVQLVESGGGLVQPGGSLRLSCAASGFTFSSFSMDWVRQAPGKGLEWVSYISPDASTIYYADSVKGRFTISRDNAKNTLYLQMNSLRAEDTAVYYCARGVLDYGDMLDPWGQGTLVTVSS
VL: DIQMTQSPSSLSASVGDRVTITCQASQDITNYLNWYQQKPGKAPKLLIYDASNLETGVPSRFSGSGSGTDFTFTISSLQPEDIATYYCQQADNHPPWTFGGGTKVEIK
In the case of B8, the “IC50, reporter cell assay” value in assay [1] came out at 0.7 nM; in [2] it was 0.7 nM; in assay [4], 0.3 nM; in assay [3], 0.3 nM.

B9: Ab23 (antibody, V domains shown)
VH: EVQLVESGGGLVQPGGSLRLSCAASGFTFSSFSMNWVRQAPGKGLEWVSYISPSADTIYYADSVKGRFTISRDNAKNTLYLQMNSLRAEDTAVYYCARGVLDYGDMLDPWGQGTLVTVSS
VL: DIQMTQSPSSLSASVGDRVTITCQASQDITNYLNWYQQKPGKAPKLLIYDASNLETGVPSRFSGSGSGTDFTFTISSLQPEDIATYYCQQADNHPPWTFGGGTKVEIK
For B9, the “IC50, reporter cell assay” value in assay [1] amounted to 0.9 nM; in assay [2] it was 0.8 nM; in assay [4], 0.6 nM; in assay [3], 0.3 nM.

B10: Ab6 Fab (Fab, V domains shown)
VH: EVQLVESGGGLVQPGGSLRLSCTASGFTFSSFSMDWVRQAPGKGLEWVSYISPSADTIYYADSVKGRFTISRDNAKNTLYLQMNSLRAEDTAVYYCARGVLDYGDMLMPWGQGTLVTVSS
VL: DIQMTQSPSSLSASVGDRVTITCQASQDITNYLNWYQQKPGKAPKLLIYDASNLETGVPSRFSGSGSGTDFTFTISSLQPEDIATYYCQQADNHPPWTFGGGTKVEIK
notes: also called Fab fragment of Ab6
With B10, the dissociation constant (Kd) in assay [5] came to 0.124 nM; in [6] it was 0.104 nM; in assay [7] it was 0.145 nM; in [8], 0.488 nM. For the same molecule, the koff was 0.000255 s⁻¹ in assay [5], 0.000218 s⁻¹ in assay [6], 0.000123 s⁻¹ in assay [7] and 0.000831 s⁻¹ in assay [8]. Further, the association rate constant (kon) in assay [5] was 2.05e+06 M⁻¹ s⁻¹; in assay [6], 2.1e+06 M⁻¹ s⁻¹; in assay [7] it was 845000 M⁻¹ s⁻¹; in [8] it was 1.7e+06 M⁻¹ s⁻¹.

(Values after patent US20230050148A1 (SCHOLAR ROCK, published 2023).)
